How the values were obtained:
purified protein [1] = substrate: O=C(Cn1ccnc1[N+](=O)[O-])NCc1ccccc1; test: purified protein; assay type: biochemical, Trypanosoma cruzi; conditions: 100 μM NADH fixed; benznidazole 10–100 μM
purified protein [2] = substrate: CC1CS(=O)(=O)CCN1/N=C/c1ccc([N+](=O)[O-])o1; test: purified protein; assay type: biochemical, Trypanosoma cruzi; conditions: 100 μM NADH fixed

B1: TcNTR (61S, catalytic domain) (Trypanosoma cruzi strain CL Brener) (protein)
chain: LDAMKRVVHERRSCKRFDPTKSIDLDVVSDLLAMTVRAPTALNLQPWVAVVIHEEEQRETLSRAALGQPQPRDAPVTVVFAGDMEPESNAPAALEMGLESGYYHSLYGAAYLRHAYYLLHGGPCEVMSHVKAIVSAWYSESTGNAMLSVPRNKQAYAWKQVMIPATTFLYLATAAGFDTAILEGFDEAQVRRVAGLPPRFTVPVIISVGHGAKNGFHSVRSPRFPTKHLVRWGKF
Km (purified protein [1]): 28.0 ± 2.7 µM | Km (purified protein [2]): 15.5 ± 3.5 µM
